Results taken from patent US20100047253A1.

Tests used:
[1] = biological target: human IL-13 (source not stated for the assay) (human) (UniProt P35225); experiment: cell-based or functional assay
[2] = biological target: IL-13 variant IL-13Q110R (human) (UniProt P35225); experiment: cell-based or functional assay
[3] = biological target: IL-13 variant IL-13Q110R (human) (UniProt P35225); experiment: SPR (Biacore 2000), mAb captured on goat anti-human surface, IL-13 variant (Peprotech) 23.6-0.185 nM, 1:1 model

Sequence of human IL-13 (source not stated for the assay) (human) (P35225 35-146 limits assumed): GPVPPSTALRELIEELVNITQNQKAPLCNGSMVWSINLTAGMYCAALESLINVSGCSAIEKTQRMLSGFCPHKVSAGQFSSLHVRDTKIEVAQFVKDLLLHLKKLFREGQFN
Sequence of IL-13 variant IL-13Q110R (human) (P35225 33-146, stated change not applied): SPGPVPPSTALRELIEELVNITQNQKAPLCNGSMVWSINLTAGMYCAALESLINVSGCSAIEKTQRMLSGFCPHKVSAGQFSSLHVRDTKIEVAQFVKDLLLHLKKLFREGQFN

| Binder | IC50, IL-13 induced eotaxin release, Average [1] [pM] | IC50, IL-13 induced eotaxin release, n = 1 [1] [pM] | IC50, IL-13 induced eotaxin release, n = 2 [1] [pM] | IC50, IL-13 induced eotaxin release, n = 3 [1] [pM] | IC50, eotaxin production by HDFa cells, 300 pM IL-13Q110R [2] [pM] | IC50, eotaxin production by HDFa cells, 600 pM IL-13Q130R [2] [pM] | Kd [3] [pM] | koff [3] [s⁻¹] | kon [3] [M⁻¹ s⁻¹] | EC50, HDLM-2 proliferation assay (3H-thymidine) [1] [pM] | EC50, L-1236 proliferation assay (3H-thymidine) [1] [pM] | IC50, IL-13-induced CD23 expression on whole blood B cells (FACS) [1] [pM] |
| --- | --- | --- | --- | --- | --- | --- | --- | --- | --- | --- | --- | --- |
| mAb 623 (antibody, V domains shown) VH: EVQLVESGGGLVKPGGSLRLSCAASGFTFSNAWMSWVRQAPGKGLEWVGRIRSEIDGGTTNYAAPVKGRFTISRDDSKNTLYLQMNSLKTEDTAVYYCATDQVGAYYGDYYGMDVWGQGTTVTVSS VL: SYELTQPPSVSVSPGQTARITCSGDALPEKYAYWYQQKSGQAPVLVIYEDSKRPSGIPERFSGSSSGTMATLTISGAQVEDEADYYCHSTDSSGNHGVFGGGTKLTVLG |  |  |  |  | 106 | 277 | 38.8 | 0.000218 | 5.62e+06 |  |  |  |
| human IL-13 receptor α2/Fc (Fc fusion, UniProt Q14627 27-343, looked up, not shown: a dimerising Fc or GST) DTEIKVNPPQDFEIVDPGYLGYLYLQWQPPLSLDHFKECTVEYELKYRNIGSETWKTIITKNLHYKDGFDLNKGIEAKIHTLLPWQCTNGSEVQSSWAETTYWISPQGIPETKVQDMDCVYYNWQYLLCSWKPGIGVLLDTNYNLFYWYEGLDHALQCVDYIKADGQNIGCRFPYLEASDYKDFYICVNGSSENKPIRSSYFTFQLQNIVKPLPPVYLTFTRESSCEIKLKWSIPLGPIPARCFDYEIEIREDDTTLVTATVENETYTLKTTNETRQLCFVVRSKVNIYCSDDGIWSEWSDKQCWEGEDLSKKTLLR | 131 | 128 | 147 | 119 |  |  |  |  |  | 600 | 59 | 4000 |

More lines, now with the values ahead:

| IC50, IL-13 induced eotaxin release, Average [1] [pM] | IC50, IL-13 induced eotaxin release, n = 1 [1] [pM] | IC50, IL-13 induced eotaxin release, n = 2 [1] [pM] | IC50, IL-13 induced eotaxin release, n = 3 [1] [pM] | IC50, eotaxin production by HDFa cells, 300 pM IL-13Q110R [2] [pM] | IC50, eotaxin production by HDFa cells, 600 pM IL-13Q130R [2] [pM] | Kd [3] [pM] | koff [3] [s⁻¹] | kon [3] [M⁻¹ s⁻¹] | EC50, HDLM-2 proliferation assay (3H-thymidine) [1] [pM] | EC50, L-1236 proliferation assay (3H-thymidine) [1] [pM] | IC50, IL-13-induced CD23 expression on whole blood B cells (FACS) [1] [pM] | Binder |
| --- | --- | --- | --- | --- | --- | --- | --- | --- | --- | --- | --- | --- |
| 32 | 29 | 39 | 29 |  |  |  |  |  |  |  |  | murine IL-13 receptor α2/FC (Fc fusion, mouse, UniProt O88786 22-334, looked up, not shown: a dimerising Fc or GST) LEIKVNPPQDFEILDPGLLGYLYLQWKPPVVIEKFKGCTLEYELKYRNVDSDSWKTIITRNLIYKDGFDLNKGIEGKIRTHLSEHCTNGSEVQSPWIEASYGISDEGSLETKIQDMKCIYYNWQYLVCSWKPGKTVYSDTNYTMFFWYEGLDHALQCADYLQHDEKNVGCKLSNLDSSDYKDFFICVNGSSKLEPIRSSYTVFQLQNIVKPLPPEFLHISVENSIDIRMKWSTPGGPIPPRCYTYEIVIREDDISWESATDKNDMKLKRRANESEDLCFFVRCKVNIYCADDGIWSEWSEEECWEGYTGPDSK |
|  |  |  |  | 54 | 140 | 9.8 | 5.02e-05 | 5.11e+06 |  |  |  | mAb 731 (antibody, V domains shown) VH: EVQLLESGGGLVQPGGSLRLSCAASGFTFSSYAMSWVRQAPGKGLEWVSAFSGSGGSTYYADSVKGRFTISRDNSKNTLYLQMNSLRAEDTAVYYCVQDGLGPYFYNYGMDVWGQGTTVTVSS VL: SYELTQPPSVSVSPGQTASITCSGDKLGDKYACWFQQKPGQSPVLVIYHDSKRPSGIPERFSGSNSGDTATLTISGTQAMDEADYYCQAWDSSTYVFGTGTKVTVLG |
